Earlier results, collected in PMC8508939.

Target: FoxP1 forkhead domain (Homo sapiens) (UniProt Q9H334)

Kd: 27 µM
Substance: FoxP1 forkhead domain (from UniProt Q9H334)
